The source of these data is PMC11138481.

In general, Kd refers to the constant that tells how readily two partners part at equilibrium. Lower therefore signals tighter binding.

The target in experiment [1] is GAS41 YEATS domain (residues 11–150) (human) (UniProt O95619). Put plainly: MST.
A further experiment addresses Flag-GAS41 H43S (human) (UniProt O95619). Put plainly: co-IP.

Sequence of GAS41 YEATS domain (residues 11–150) (human) (O95619 11-150): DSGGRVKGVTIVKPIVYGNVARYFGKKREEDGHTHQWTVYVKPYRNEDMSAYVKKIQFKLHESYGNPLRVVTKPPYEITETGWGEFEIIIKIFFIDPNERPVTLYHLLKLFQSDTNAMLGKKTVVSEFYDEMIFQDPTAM
Sequence of Flag-GAS41 H43S (human) (O95619 whole entry H43S): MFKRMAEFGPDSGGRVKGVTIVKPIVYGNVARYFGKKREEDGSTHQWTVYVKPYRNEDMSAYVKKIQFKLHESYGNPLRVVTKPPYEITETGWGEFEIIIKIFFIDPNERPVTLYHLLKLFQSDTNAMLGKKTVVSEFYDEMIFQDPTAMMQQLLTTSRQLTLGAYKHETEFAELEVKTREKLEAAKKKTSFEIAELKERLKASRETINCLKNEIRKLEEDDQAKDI

In experiment [1], “H3K27ac nucleosome core particle (from UniProt P04908 1-130; P62805 1-103) (complex)” returned a Kd of 0.229 µM. The same measure, in the same setting: the same measure for “H3K27cr nucleosome core particle (from UniProt P04908 1-130; P62805 1-103) (complex)”: 0.158 µM. In turn, “nucleosomal histone H3K27cr (endogenous) (from UniProt P68431 1-136) (natural protein)” yielded a percent reduction of binding against Flag-GAS41 wt with Flag-GAS41 H43S (human) above 60%.

Consider “unmodified nucleosome core particle (from UniProt P04908 1-130; P62805 1-103) (complex)”, for which the Kd in experiment [1] amounted to 0.913 µM.
